Experimental data reported in publication doi:10.1101/2020.04.07.023903.

Biological target: SARS-CoV-2 S glycoprotein, full length, expressed at the surface of ExpiCHO cells (SARS-CoV-2 (isolate BetaCoV/Wuhan-Hu-1/2019)) (UniProt P0DTC2)

Substance | neutralization of SARS-CoV-2-MLV pseudovirus (transduction), IC50 | neutralization of SARS-CoV-2-MLV pseudovirus, plateau of neutralization | neutralization of SARS-CoV-2-MLV pseudovirus, maximal neutralization
S309 Fab fragment | 3.8 nM | 80% | –
S309 full-length IgG1 (rIgG-LS) (antibody) | 3.5 nM | – | 100%
